Results from the supplement of paper PMC10065799, “High-throughput profiling of sequence recognition by tyrosine kinases and SH2 domains using bacterial peptide display” (eLife, 2023).

These sequences were tested on AncSZ (assay: phosphorylation enrichment, bacterial display (enrichment ratio); higher = better substrate or ligand; peptides without Tyr show the background).
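Further: 11-residue human phosphosite peptides and single-mutation variants displayed on the E. coli surface, counted by deep sequencing, each peptide's frequency after selection divided by its frequency in the unselected input library; frequency after pTyr selection over input frequency; kinase dosed for 20-30% of maximal phosphorylation in three min.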

| Sequence | phosphorylation enrichment |
| --- | --- |
| SVVVPYEPAEV [TP53_Y220_P223A] | 1.09 |
| MLEVPYVDHNS [F10_Y384_R387H] | 1.2 |
| LVIIKYLPEWT [PSEN1_Y240_F237I] | 3.39 |
| AGLVQYFMEHH [PTPN11_Y80_E76G_YF] | 0.955 |
| RELGEYPLAEF [ALDH1A3_Y492_A493P_YF] | 1.18 |
| LIHTKYPQLLP [AHCY_Y143] | 0.808 |
| MQMEEYRGRVE [BTNL2_Y91_W94R] | 0.755 |
| EDEGLYMVRVP [MYOM3_Y343] | 1.58 |
| FKGIVYSVSSD [DCX_Y70_A71S] | 1.09 |
| PLGVPYLDKPP [JMJD7_Y31_A28G] | 0.955 |
| QPAGNYSLSSV [ARFGAP3_Y473] | 0.985 |
| CTNPQYLAAGS [RABL3_Y185_R184Q] | 0.724 |
| RGDTVYTVNRM [KBTBD13_Y404] | 1.05 |
| FESPRYLQVRI [FANCA_Y488_H492R] | 0.946 |
| AHAGEYGAGAL [HBA1_Y25_E28G] | 0.575 |
| FFRKFCNKSED [RYR1_Y4864_Y4864C] | 0.981 |
| EPSVDYCVVKI [CAD_Y735] | 1.57 |

| Sequence | phosphorylation enrichment |
| --- | --- |
| SAQHHYESLQT [BIN1_Y157_R154Q] | 0.763 |
| AAPAAHDAADT [GAMT_Y27_Y27H] | 0.618 |
| SHKELYKWFTS [DYNC1H1_Y3051_E3048K] | 0.634 |
| CFTRQYTLPPG [HSPB1_Y142_K141Q] | 0.976 |
| LFCVHYFHRTF [SRD5A2_Y91] | 2.32 |
| SSENPCATIKD [MEGF10_Y1030_Y1030C] | 0.812 |
| ACRSLYGGFVE [MVD_Y164] | 1.11 |
| SKAFAYVHFDS [PABPC5_Y149_G146A_YF] | 0.935 |
| SVVVPYEPLEV [TP53_Y220_P223L] | 1.19 |
| VAFLYYKSIGP [ADGRL4_Y302_V300L] | 1.21 |
| CTTIHYNFMCK [TP53_Y234_N239K_YF] | 0.659 |
| TKVVHYRKWIK [KLK2_Y249] | 0.632 |
| RKRQFYLYKGK [RSPO4_Y112_C107R] | 0.613 |
| EALSLYTKLMN [STAM_Y371] | 1.39 |
| GQSKGYRPKLY [SIPA1L3_Y1376] | 0.43 |
| WNDPDYMDSRR [GAA_Y407_L405P] | 1.46 |

Each sequence was assayed against EPHB1 (UniProt P54762) in the same assay as above.
Chain of EPHB1 (P54762 whole entry, looked up): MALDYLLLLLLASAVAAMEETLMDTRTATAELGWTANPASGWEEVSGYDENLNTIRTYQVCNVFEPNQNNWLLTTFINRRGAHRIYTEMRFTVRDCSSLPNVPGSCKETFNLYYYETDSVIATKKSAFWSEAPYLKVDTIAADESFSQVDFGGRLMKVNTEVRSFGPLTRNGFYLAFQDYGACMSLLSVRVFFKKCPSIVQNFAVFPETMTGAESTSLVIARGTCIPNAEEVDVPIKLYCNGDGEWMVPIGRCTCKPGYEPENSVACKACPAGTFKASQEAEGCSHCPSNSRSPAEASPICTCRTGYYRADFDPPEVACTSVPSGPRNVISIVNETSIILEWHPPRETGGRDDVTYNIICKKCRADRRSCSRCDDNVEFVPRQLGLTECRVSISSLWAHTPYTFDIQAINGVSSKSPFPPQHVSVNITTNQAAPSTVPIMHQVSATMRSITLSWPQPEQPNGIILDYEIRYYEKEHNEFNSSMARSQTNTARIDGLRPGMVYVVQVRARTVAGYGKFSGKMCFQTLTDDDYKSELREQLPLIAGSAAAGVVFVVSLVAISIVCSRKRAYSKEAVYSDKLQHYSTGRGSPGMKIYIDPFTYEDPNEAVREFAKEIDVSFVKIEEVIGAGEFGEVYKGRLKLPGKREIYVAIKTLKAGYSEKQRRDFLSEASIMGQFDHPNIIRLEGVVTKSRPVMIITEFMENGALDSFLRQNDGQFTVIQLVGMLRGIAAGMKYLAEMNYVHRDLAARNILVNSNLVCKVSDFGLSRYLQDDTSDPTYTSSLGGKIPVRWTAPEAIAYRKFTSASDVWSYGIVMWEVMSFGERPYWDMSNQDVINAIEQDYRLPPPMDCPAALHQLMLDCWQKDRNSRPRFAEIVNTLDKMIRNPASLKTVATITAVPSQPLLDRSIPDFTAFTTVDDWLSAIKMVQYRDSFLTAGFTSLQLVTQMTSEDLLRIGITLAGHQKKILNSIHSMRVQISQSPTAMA

| Sequence | phosphorylation enrichment |
| --- | --- |
| SVVVPYEPAEV [TP53_Y220_P223A] | 0.704 |
| MLEVPYVDHNS [F10_Y384_R387H] | 0.594 |
| LVIIKYLPEWT [PSEN1_Y240_F237I] | 2.33 |
| AGLVQYFMEHH [PTPN11_Y80_E76G_YF] | 0.655 |
| RELGEYPLAEF [ALDH1A3_Y492_A493P_YF] | 0.511 |
| LIHTKYPQLLP [AHCY_Y143] | 0.642 |
| MQMEEYRGRVE [BTNL2_Y91_W94R] | 0.421 |
| EDEGLYMVRVP [MYOM3_Y343] | 1.74 |
| FKGIVYSVSSD [DCX_Y70_A71S] | 0.535 |
| PLGVPYLDKPP [JMJD7_Y31_A28G] | 0.901 |
| QPAGNYSLSSV [ARFGAP3_Y473] | 0.866 |
| CTNPQYLAAGS [RABL3_Y185_R184Q] | 0.487 |
| RGDTVYTVNRM [KBTBD13_Y404] | 0.825 |
| FESPRYLQVRI [FANCA_Y488_H492R] | 0.537 |
| AHAGEYGAGAL [HBA1_Y25_E28G] | 0.376 |
| FFRKFCNKSED [RYR1_Y4864_Y4864C] | 0.515 |
| EPSVDYCVVKI [CAD_Y735] | 2.83 |

| Sequence | phosphorylation enrichment |
| --- | --- |
| SAQHHYESLQT [BIN1_Y157_R154Q] | 0.463 |
| AAPAAHDAADT [GAMT_Y27_Y27H] | 0.387 |
| SHKELYKWFTS [DYNC1H1_Y3051_E3048K] | 0.544 |
| CFTRQYTLPPG [HSPB1_Y142_K141Q] | 0.577 |
| LFCVHYFHRTF [SRD5A2_Y91] | 1.26 |
| SSENPCATIKD [MEGF10_Y1030_Y1030C] | 0.43 |
| ACRSLYGGFVE [MVD_Y164] | 0.568 |
| SKAFAYVHFDS [PABPC5_Y149_G146A_YF] | 0.447 |
| SVVVPYEPLEV [TP53_Y220_P223L] | 0.562 |
| VAFLYYKSIGP [ADGRL4_Y302_V300L] | 0.78 |
| CTTIHYNFMCK [TP53_Y234_N239K_YF] | 0.403 |
| TKVVHYRKWIK [KLK2_Y249] | 0.483 |
| RKRQFYLYKGK [RSPO4_Y112_C107R] | 0.343 |
| EALSLYTKLMN [STAM_Y371] | 0.615 |
| GQSKGYRPKLY [SIPA1L3_Y1376] | 0.316 |
| WNDPDYMDSRR [GAA_Y407_L405P] | 0.989 |

Each sequence was assayed against EPHB2 (UniProt P29323) in the same assay as above.
Chain of EPHB2 (P29323 whole entry, looked up): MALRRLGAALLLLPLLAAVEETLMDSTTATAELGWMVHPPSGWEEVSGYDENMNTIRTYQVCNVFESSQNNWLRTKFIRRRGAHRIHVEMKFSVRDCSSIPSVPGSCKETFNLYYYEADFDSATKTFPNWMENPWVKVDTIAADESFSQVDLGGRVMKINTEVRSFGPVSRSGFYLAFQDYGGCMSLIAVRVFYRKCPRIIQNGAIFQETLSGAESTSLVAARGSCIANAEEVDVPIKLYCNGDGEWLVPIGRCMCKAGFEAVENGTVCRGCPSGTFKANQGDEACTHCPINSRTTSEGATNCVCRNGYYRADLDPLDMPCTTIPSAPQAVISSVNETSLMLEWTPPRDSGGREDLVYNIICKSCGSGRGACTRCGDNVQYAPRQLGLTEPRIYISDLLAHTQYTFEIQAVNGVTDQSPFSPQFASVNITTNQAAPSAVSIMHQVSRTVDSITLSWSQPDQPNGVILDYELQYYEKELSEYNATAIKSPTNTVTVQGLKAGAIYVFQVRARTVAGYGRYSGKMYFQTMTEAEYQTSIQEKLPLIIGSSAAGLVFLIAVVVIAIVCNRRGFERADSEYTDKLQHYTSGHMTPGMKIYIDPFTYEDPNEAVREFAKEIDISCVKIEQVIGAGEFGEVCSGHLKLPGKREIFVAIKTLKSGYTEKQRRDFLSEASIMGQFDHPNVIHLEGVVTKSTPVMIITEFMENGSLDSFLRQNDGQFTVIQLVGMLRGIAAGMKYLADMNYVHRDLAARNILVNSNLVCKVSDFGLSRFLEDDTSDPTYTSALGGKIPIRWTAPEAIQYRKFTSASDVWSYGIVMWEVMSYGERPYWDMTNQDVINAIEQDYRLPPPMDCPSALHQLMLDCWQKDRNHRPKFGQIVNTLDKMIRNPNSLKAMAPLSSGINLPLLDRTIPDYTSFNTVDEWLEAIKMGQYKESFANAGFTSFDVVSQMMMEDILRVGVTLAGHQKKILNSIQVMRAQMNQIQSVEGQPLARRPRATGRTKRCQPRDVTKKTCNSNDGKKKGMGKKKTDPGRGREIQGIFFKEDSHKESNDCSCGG

| Sequence | phosphorylation enrichment |
| --- | --- |
| SVVVPYEPAEV [TP53_Y220_P223A] | 0.689 |
| MLEVPYVDHNS [F10_Y384_R387H] | 0.51 |
| LVIIKYLPEWT [PSEN1_Y240_F237I] | 2.39 |
| AGLVQYFMEHH [PTPN11_Y80_E76G_YF] | 0.592 |
| RELGEYPLAEF [ALDH1A3_Y492_A493P_YF] | 0.645 |
| LIHTKYPQLLP [AHCY_Y143] | 0.562 |
| MQMEEYRGRVE [BTNL2_Y91_W94R] | 0.39 |
| EDEGLYMVRVP [MYOM3_Y343] | 1.71 |
| FKGIVYSVSSD [DCX_Y70_A71S] | 0.668 |
| PLGVPYLDKPP [JMJD7_Y31_A28G] | 0.794 |
| QPAGNYSLSSV [ARFGAP3_Y473] | 0.638 |
| CTNPQYLAAGS [RABL3_Y185_R184Q] | 0.505 |
| RGDTVYTVNRM [KBTBD13_Y404] | 0.441 |
| FESPRYLQVRI [FANCA_Y488_H492R] | 0.477 |
| AHAGEYGAGAL [HBA1_Y25_E28G] | 0.434 |
| FFRKFCNKSED [RYR1_Y4864_Y4864C] | 0.381 |
| EPSVDYCVVKI [CAD_Y735] | 1.95 |

| Sequence | phosphorylation enrichment |
| --- | --- |
| SAQHHYESLQT [BIN1_Y157_R154Q] | 0.402 |
| AAPAAHDAADT [GAMT_Y27_Y27H] | 0.602 |
| SHKELYKWFTS [DYNC1H1_Y3051_E3048K] | 0.439 |
| CFTRQYTLPPG [HSPB1_Y142_K141Q] | 0.57 |
| LFCVHYFHRTF [SRD5A2_Y91] | 1.24 |
| SSENPCATIKD [MEGF10_Y1030_Y1030C] | 0.494 |
| ACRSLYGGFVE [MVD_Y164] | 0.642 |
| SKAFAYVHFDS [PABPC5_Y149_G146A_YF] | 0.483 |
| SVVVPYEPLEV [TP53_Y220_P223L] | 0.602 |
| VAFLYYKSIGP [ADGRL4_Y302_V300L] | 0.776 |
| CTTIHYNFMCK [TP53_Y234_N239K_YF] | 0.387 |
| TKVVHYRKWIK [KLK2_Y249] | 0.318 |
| RKRQFYLYKGK [RSPO4_Y112_C107R] | 0.615 |
| EALSLYTKLMN [STAM_Y371] | 0.639 |
| GQSKGYRPKLY [SIPA1L3_Y1376] | 0.393 |
| WNDPDYMDSRR [GAA_Y407_L405P] | 0.687 |

Each sequence was assayed against FGFR1 (UniProt P11362) in the same assay as above.
Chain of FGFR1 (P11362 whole entry, looked up): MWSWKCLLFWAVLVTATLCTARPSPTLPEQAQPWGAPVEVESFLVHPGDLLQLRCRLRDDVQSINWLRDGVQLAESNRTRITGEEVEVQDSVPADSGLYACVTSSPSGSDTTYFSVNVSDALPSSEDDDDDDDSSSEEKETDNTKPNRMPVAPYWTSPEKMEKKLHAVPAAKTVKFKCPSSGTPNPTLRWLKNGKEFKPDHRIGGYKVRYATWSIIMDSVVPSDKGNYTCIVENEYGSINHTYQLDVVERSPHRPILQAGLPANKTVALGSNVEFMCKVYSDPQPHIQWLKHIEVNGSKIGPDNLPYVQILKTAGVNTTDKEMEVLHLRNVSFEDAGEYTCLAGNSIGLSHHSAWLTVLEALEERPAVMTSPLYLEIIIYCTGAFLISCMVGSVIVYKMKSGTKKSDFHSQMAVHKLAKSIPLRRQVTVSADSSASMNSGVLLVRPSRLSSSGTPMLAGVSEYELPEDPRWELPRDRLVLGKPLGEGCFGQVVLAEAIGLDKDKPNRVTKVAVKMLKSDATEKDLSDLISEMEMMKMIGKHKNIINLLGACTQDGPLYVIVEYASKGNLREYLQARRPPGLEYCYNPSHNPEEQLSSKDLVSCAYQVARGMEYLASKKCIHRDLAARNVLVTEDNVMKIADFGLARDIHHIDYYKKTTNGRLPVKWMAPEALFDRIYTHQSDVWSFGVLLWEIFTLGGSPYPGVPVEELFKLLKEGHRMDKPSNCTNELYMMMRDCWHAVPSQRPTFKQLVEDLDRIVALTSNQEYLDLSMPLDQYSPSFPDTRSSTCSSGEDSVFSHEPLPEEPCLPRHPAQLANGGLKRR

| Sequence | phosphorylation enrichment |
| --- | --- |
| SVVVPYEPAEV [TP53_Y220_P223A] | 0.566 |
| MLEVPYVDHNS [F10_Y384_R387H] | 0.516 |
| LVIIKYLPEWT [PSEN1_Y240_F237I] | 1.38 |
| AGLVQYFMEHH [PTPN11_Y80_E76G_YF] | 0.538 |
| RELGEYPLAEF [ALDH1A3_Y492_A493P_YF] | 0.709 |
| LIHTKYPQLLP [AHCY_Y143] | 0.639 |
| MQMEEYRGRVE [BTNL2_Y91_W94R] | 0.411 |
| EDEGLYMVRVP [MYOM3_Y343] | 0.56 |
| FKGIVYSVSSD [DCX_Y70_A71S] | 0.548 |
| PLGVPYLDKPP [JMJD7_Y31_A28G] | 0.6 |
| QPAGNYSLSSV [ARFGAP3_Y473] | 0.414 |
| CTNPQYLAAGS [RABL3_Y185_R184Q] | 0.465 |
| RGDTVYTVNRM [KBTBD13_Y404] | 0.824 |
| FESPRYLQVRI [FANCA_Y488_H492R] | 0.62 |
| AHAGEYGAGAL [HBA1_Y25_E28G] | 0.365 |
| FFRKFCNKSED [RYR1_Y4864_Y4864C] | 0.49 |
| EPSVDYCVVKI [CAD_Y735] | 2.25 |

| Sequence | phosphorylation enrichment |
| --- | --- |
| SAQHHYESLQT [BIN1_Y157_R154Q] | 0.47 |
| AAPAAHDAADT [GAMT_Y27_Y27H] | 0.403 |
| SHKELYKWFTS [DYNC1H1_Y3051_E3048K] | 0.897 |
| CFTRQYTLPPG [HSPB1_Y142_K141Q] | 0.553 |
| LFCVHYFHRTF [SRD5A2_Y91] | 1.04 |
| SSENPCATIKD [MEGF10_Y1030_Y1030C] | 0.554 |
| ACRSLYGGFVE [MVD_Y164] | 0.625 |
| SKAFAYVHFDS [PABPC5_Y149_G146A_YF] | 0.449 |
| SVVVPYEPLEV [TP53_Y220_P223L] | 0.531 |
| VAFLYYKSIGP [ADGRL4_Y302_V300L] | 0.531 |
| CTTIHYNFMCK [TP53_Y234_N239K_YF] | 0.418 |
| TKVVHYRKWIK [KLK2_Y249] | 0.375 |
| RKRQFYLYKGK [RSPO4_Y112_C107R] | 0.437 |
| EALSLYTKLMN [STAM_Y371] | 0.391 |
| GQSKGYRPKLY [SIPA1L3_Y1376] | 0.357 |
| WNDPDYMDSRR [GAA_Y407_L405P] | 0.553 |
